The nanobody polyreactivity screen of Harvey et al. (2022)

Assay: yeast display, Sf9 membrane polyspecificity reagent, FACS + sequencing; frameworks hold sequencing errors
In short: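 Sorting gates, low and high (top ~1%), were placed on anti-HA fluorescence to track expression and on streptavidin fluorescence to track reagent binding. A clone's polyreactivity label is taken from the gate it came out of. The reagent was 10% biotinylated, detergent-solubilized Sf9 membrane, applied for 1 hour at 4 °C to galactose-induced yeast display cells.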

| Sequence | polyreactivity (PSR sort gate) |
| --- | --- |
| QVQLVDSGGGLVQAGGSLRLSCAASGSTFVQYAMGWYRPAPGKERELVAAISTGGSTNYADSVKGRFTISRDNAKNTVYLEMNSLKPEDTAVYYCNVAVWTIVQSLYPYDYWGQGTQVTVSS | low polyreactivity |
| QVQLVDSGGGLVQAGGSLRLSCAASGSTFWYNAMGWYRQAPGKERELVAANSISDGNTYYADSVKGRFTISRDNAKNTVFLQMYSLKPEDTAVYYCNAGYWYDGPDYITEYDYWGQGTQVTVSS | low polyreactivity |
| QVQLVDSGGGLVQAGGSLRLSCAASGSTIPIYAMVWYRQAPGKERELVARITWSGGSTYYADSVKGRFTISRDNAKNTVYLQMNSLKPEDTAVYYCAAVVITTPYDRYYYWGQGTQVTVSS | high polyreactivity |
| QVQLVDSGGGLVQAGGSLRLSCAASGSTIPNYAMGWYRQAPGKERELVADIDSSGGSTYYADSVKGRFTISRDNAKNTVYLQMNSLKPEDTAVYYCAAGYFWYDVLNSRVLVWNNYWGQGTQVTVSS | high polyreactivity |
| QVQLVDSGGGLVQAGGSLRLSCAASGSTLNSYVIGWYRQAPGKERELVATIRSGSSTNYADSVKGRFTISRDNAKNTVYLQMNSLKPEDTAVYYCAADAYSLCYDSWGQGTQVTVSS | low polyreactivity |
| QVQLVDSGGGLVQAGGSLRLSCAASGSTSYWYAMGWYRLAPWKEMELFATIRSRGGSTSYADSVKGRFTISRDNAKNTVYLQMNSLKPEDTAVYYCAVEYQSWKGWWFDYWGQGTQVTVSS | high polyreactivity |
| QVQLVDSGGGLVQAGGSLRLSCAASGSTVQYYAMGWYRQAPGKERELVAAITHSGTRTYYADSVKGRFTISRDNAKNTVYLQINSLKPEDTAVYYCAARGYGKYDYWGQGTQVTVSS | high polyreactivity |
| QVQLVDSGGGLVQAGGSLRLSCAASGYTFVGYAMGWSRQAPGKERELVAVISGSGGSTRYADSVKGRFTISRDNAKNTVYLQMNSLKPEDTAVYYCAARQPRTQAVYEGYYWGQGTQVTVSS | high polyreactivity |
| QVQLVDSGGGLVQAGGSLRLSCAASVRIFTINAMGWYRPAPGKDRELVAAISDGGGSTYYADSVKGRFTISRYNAKNTVYLQMNSLKPEDTAVYYCARKSWPKERRVDPGYDYGGQGTQVTVSS | low polyreactivity |
| QVQLVDSGGGLVQAGGSLRLSCASSGFIFAVYAMGWYRQAPGKERELVARISWSGGSTYYADSVKGRFTISRDNAKNTVYLQMNSLKPEDTAVNYCWGQGTQVTVSS | low polyreactivity |
| QVQLVDSGGGLVQAGGSLRLSCASSGRIFHGYAMGWYRHAPGKERELVAAIDEDGGSTYYADSVKGRFTISRDNAKNTVYLQMNSLKPEDTAVYYCATDALYTYGYDYWGQGTQVTVSS | low polyreactivity |
| QVQLVDSGGGLVQAGGSLRLSCDASGFIFERYAMGWYRQAPGKERELVAGIYSGGSTYYADSVKGRFTISRDNAKNTVYLQMNSLKPEDTAVYYCAPYRRQHIIYNYWGQGTQVTVSS | high polyreactivity |
| QVQLVDSGGGLVQAGGSLRLSCDASGSTFRGYAMGWYRKAPGKERELVAAISSRGARTHYADSLKGRFTISRDNAKNNVYLQMNSLKPEDTAVYYCNKRQVFFSTGEYEFDYWGQGTQVTVSS | low polyreactivity |
| QVQLVDSGGGLVQAGGSLRLSCPASGITLNHYVMGWYRQAPAKETELVAAISSSGGSTYYADSVKGRFTISRDNAMITVYLQMNSLKPEDTAVYYCAKDYNGRYTWRYEYWGQGTQVTVSS | high polyreactivity |
| QVQLVDSGGGLVQAGGSLRLSCPASGSIISVYARGWYRQAPGKERELVADITGTGDTYYADSVKGRFTISRDKAKNTVYLHRNSLKPDDTAGYYCNTVYELYYDPSVTEDYWGQGTQVTVSS | low polyreactivity |
| QVQLVDSGGGLVQAGGSLRLSCSASVRTFRGTAMGWYRHAPGKEREMVAPITYRTGSKYYPDSVKGRFTNSRDNAKNTVYLLLNSLKPEDSAVYYCAAVSGRSYDKDYFWGQGTQVTVSS | high polyreactivity |
| QVQLVDSGGGLVQAGGSLRLSSAASGFIFQANAMGSSRQAPGKERELVAAIDDGDSTYADSVKGRFTISRDNAKNSVYLQMNSLKPEDTAVYYCATRRNRSYDYWGQGTQVTVSS | low polyreactivity |
| QVQLVDSGGGLVQAGGSLRLTCAASGRTFWKYCKGWYRQAPGQERELVAVMSRPAGSTYYADSVKGRFPISRDNAKNTGYLLLNRLKPEDTAVYSCAKRPKNKPVLGDYDHWGQGTQVTVSS | low polyreactivity |
| QVQLVDSGGGLVQAGGSLRLTCAASGTFYYYAMGWNRQAPGKERELVAAISYSGGRTYYADSVKGRFTISRDNAKNTVYLQMNSLKPEDTAFYYCNTDARSKKYIFDFDYWGQGTQVTLSS | high polyreactivity |
| QVQLVDSGGGLVQAGGSLRLTCGSSGSIFYYYVMGLYIQAHGKERELVAAISSGGGTNYSDSVKGRFTISRYNAKNTVYLQMNSLKPEDTAVYYCAKASAYGLANDYDYCGQGTQVTVSS | low polyreactivity |
| QVQLVDSGGGLVQAGGSLSLSCAASGFTFVRYAMGWYRQAPGKERELVAAISGRGGSTYFADSVKGRFTISRDYAKNTVYLQMNSLKPDDTAVYYCATDYSRTFDYWGQGTQVTVSS | high polyreactivity |
| QVQLVDSGGGLVQAGGSLSLSCAASGRTFARYTMGWSRQAPGKERELLAVISRSGGSTYYADSVKGRFTISRDNAKNSVYLKKNSLKQEDTAVYYCAAGYFVVTTLEYYFWGQGTQVTVSS | high polyreactivity |

| Sequence | polyreactivity (PSR sort gate) |
| --- | --- |
| QVQLVDSGGGLVQAGGSLSLSCAASGRTFNYKAMGWYRQAPGKERELVAAISWGGGSTFYADSVKGRFTISRDNAKNTVYLEMNSLKPEDTAVYYCAAYRQYGNRGAYYSWGQGTQVTVSS | low polyreactivity |
| QVQLVDSGGGLVQAGGSLSLSCAASGRTFYPYAMGWYRQAPGKERELVARISRGGRTNYADSVKGRFTISRDNAKNTVYLQMNSLKPEDTAVYYCAAVYYGSYFITEDYWGQGTQVTVSS | low polyreactivity |
| QVQLVDSGGGLVQAGGSLSLSCAASGSTFVVNAMGWYRQAPGKERELVAAITQSGGSTFYADSVKGRFTISRDNAKNTVYLQMNSLKPEDTAVYYWGQGTQVTVSS | low polyreactivity |
| QVQLVDSGGGLVQAGGSLSLSCAASGYTFDTNAMGWYRQAPGKERELVAAIDFSGGTTYADSVKGRFTISRDNAKNTVYLQMNSLKPEDTAVYYCSADHSGGSRYDYWGQGTQVTVSS | low polyreactivity |
| QVQLVDSGGGLVQAGGTLRLSCAASGRTFSSYAMGWYIQAPGKERELVSAISWSGGITYYADSVKVRFTISRDNAKNTVYLQMNSLKPEDTAVYYCAVALTRRKSYEYSGGFWGQGTQVTVSS | high polyreactivity |
| QVQLVDSGGGLVQAGGTLRLSCAATGRTVSKYAMGWYRQAPGKERELVAAITRSGGRTYYADSVKGRFTISRDNAKNTVYLQMNSLKPEDTAVYYCARTTNQHTLATEDDYWGQGTQVTVSS | high polyreactivity |
| QVQLVDSGGGLVQAGVSLRLSCAASGFIFYRYAMVWYRQAPGKERELVAAINWSGGGTYYADSVKGRFTISRDNAKNTVYLLMNSLKPEDTAVYYCAAVRSFRGSYWYEYWGQGSQVTVSS | high polyreactivity |
| QVQLVDSGGGLVQAVGSLRLSCAASGSIFRLNAMGWYRQAPGKERDLVGAITWSDSSTYYADSVKGRFTISRDNAKNTVYLQMNSLKPEDTAVYYCAADPQSYKYDYWGQGTQVTVSS | low polyreactivity |
| QVQLVDSGGGLVQGGGSLRLSCAASGRTFGIYPMRWYRPAPGKERELVAAISRRGTSTYYADTVKGRFTISRDNAKNTVYLQLNSLKPEDTAVYYCATVGATVDNRDDYWGQGTQVTVSS | high polyreactivity |
| QVQLVDSGGGSVQAGGSLRLSCAASGSTFYENAMGWYREAPGKETELVAASTWSGGRTYYADSVKGRFTISRDNAKNTVYLQMYSLKPEDTAVYYCNARARSRKFYYWGQGTQVTVSS | high polyreactivity |
| QVQLVDSGRGLVQAGGSLRLSCAASGFIFNPYVMGWYRQAPGKERELVAVITSGGSTNYADSVKGRFTISRDNAKNTVYLQMNSLKPEDTAVYYCNVDRRPYYVWRVTYDYWGQGTQVTVSS | low polyreactivity |
| QVQLVDSGVGLVQAGGSLRLSCAASGRIFSVYAMGRYRHAPGKERELVASISSGGSTNYADSVKGRFTISRDNAKNTVYLQMNSLKPEDTAVYYCAADYWYRLFWYYGAPLDYWGLGTQVTVSS | low polyreactivity |
| QVQLVDSRGGLDQAGGSHRLSCAASGSTFSTNVMGWYRQAPGKERELVAAISISGTTTYYADSVKGRFTISRDNAKNTVYLQMNSLKPEDTAVYYCAAENYVAWTWHDYWGQGTQVTVSS | high polyreactivity |
| QVQLVDSRGGLVQAGGSLRLSCAASGFIFSRYAMGWSRQAPGKERELVAAISYRGGSTYYADSVKGRFTISRDNAKNPVYLQMNSLKPEDTAVYYCAASLRYYGLEMDYWGQGTQVTVSS | high polyreactivity |
| QVQLVDSRGGLVQAGRSLRLSCAASGIIFFAYAMGWYRQAPGKERELVAAISSSGGRTYYADSVKGRFTISRDKAKNTVYLQMNSLKPEDTAVYYCNARWHGSFDYWGQGTQVTVSS | low polyreactivity |
| QVQLVDSRGLLVQAGGSLRLSCAASGSTYSYYAMGWYRQAPGKERELVAAITRGGSTYYADSVKGRFTISRDNAKNTVYLQMNSLKPEDPAVYYCSATHVSRRWGMDYWGEGTQVTVSS | high polyreactivity |
| QVQLVDSVGGLVQAGGSLRLSCAASGRTFSNYAMGWYRQAPGKERQLVAAISGTGDNTYYADSVKGRFTISRDNAKNTVYLQMNSLKPEDTAVYYCKTVYYGWPRRYGYWGQGTQVTVSS | high polyreactivity |
| QVQLVDTGAGLVQAGGSLRISCAPSGNIFVDNVMGWYRQAPGKERELVAAIDYSGGSTYYADSVKGRFTISRDNAKNNVYLQMNSLKPEDTAVYYCNARTYYGFGMDFWGQGTQVTVSS | low polyreactivity |
| QVQLVDTGGGFVQAGGSLRLSCAASGRTFPYYAMGLYRQAPGKERELVAAMTRGVRTQYADSVKGRFTISRDNAKNTVYLQMNSLKPEDTAVYYCAREDWGSYSDMDSWGQGTQVTVSS | low polyreactivity |
| QVQLVEAGGGLGQAGGSLRLSCAASGFTFYRYARGWYRQAPGKERELVAAISSSGGRTYYADSVKGRFTISRDTAKNTVYLQMNSLKPEDTAVYYCNVVRLQSYYGPFDYWGQGTQVTVSS | high polyreactivity |
| QVQLVEAGGGLVQAGGRLRLSCAASGIIIVPYTMGWYRQAPGKERELVAAISRSGGRTYYADSVKGRFTISRDNAKNTVYLQMNSLKPEDTAVYDCNKRSLYYGYYLYYRMDYWGQGTQVTVSS | high polyreactivity |
